Assay: soluble on expression in E. coli; label from the status in PepcDB or PDB records

| Sequence | soluble on expression in E. coli |
| --- | --- |
| MNDAVPAGNFVPPLILHSDHGGSAMSSSAHRGRILHFLGDPAKLGDKAWEYFEDGLLWIEHGHVRALDHATYLLPQLPADLPLEEHPQRLLLPGFVDCHVHYPQLGVIASYGTQLLDWLETHTFPAEQRFADAGYAAAQAELFLDELLRHGTTTALVFGTVHAVSAEAFFQAAQKRRLRMIAGKVLMDRNAPPALCDTAASGYAESRALIERWHGNGRLQYAVTPRFAPTSSPEQLAAAARLLDEYPGVYLHTHLSENLKEVAWVGELFPQAQDYLDVYHRAGLVGERSVFAHGIHLSERECRCLAHKNAALAHCPSSNLFIGSGLFDLGRAQQYGIRVGIGSDVGGGTSLSLLANLADAYKIQQLRGTSLDPFQALYLATLGGARALDLDGLVGNFLPGREADFVALDLAATPMIAQRMEHARGLADTLFVLNTLGDDRAVAETWVMGERRHVKG | not soluble |
| MGTPQGKLKTINGVGKIEDFASTKAKMRVRYPLLITFNYWVLYKSPDKSWFISANPSTEDVWVYARSVPSKAKLNRMMMKVRELGYDVKKLEFPLEHHHHHH | not soluble |
| MAQLYYRYGTMNSGKTIEILKVAYNYEEQGKGVVIMTSALDTRDGVGYVSSRIGMKRPALAIEETTDIFGYIRDLPEKPYCVLVDEAQFLKRHHVYDLARVVDELDIPVMAFGLKNDFRNELFEGSKYLLLLADKIDEIKTICQYCKKKATMVLRTQDGLPVYDGEQIQIGGNETYISVCRKHYFAPMITSNKEQNYDNLEHHHHHH | soluble |
| MGHHHHHHSHMDKNVISVKIMEEKRDESTGVIYRKRIAICQNVVPEILRKVSILKVPNIQLEEESWLNPRERNMAIRSHCLTWTQYASMKEESVFRESMENPNWTEFIQRGRISITGVGFLNCVLETFASTFLRQGAQKGIRIMEMLLKEQCGAPLAE | not soluble |
| MNPIIDGIIALEGGYVFNPKDKGGATHWGITEATARAHGYAGDMRDLTHAEAYAILEEDYWIKPGFDVISTLSWPVSFELCDAAVNIGAYHPSAWLQRWLNVFNHEGKRYPDIHVDGNIGPRTLAALEHYLAWRGQEGEAVLVKALNCSQGTYYLNVAEKNHNNEQFIYGWIKNRVT | soluble |
| VRKCLSDTDCTNGEKCVQKNKICSTIVEIQRCEKEHFTIPCKSNNDCQVWAHEKICNKGCCWDLL | soluble |
| MSLRSEVKAEDTWRLEDIFPSDEAWNKEFQAVKELIPNLSKYKGKLADSADHLYEALTYQDKVMERLGRLYTYAHMRSDQDTGNSFYQGLNDKAGNLYTQAESATAYLVPEILSIEEDKLQQFILEKEELKLYSHAIEEITKERPHVLSEKEEALLAEASEVLGSSSNTFSVLNNADITFPSIKDEDGNEKQITHGNFINFLESENREVRKNAFDAVYKTYGQYKNTMATTLSGTVKKDNFYARVKKYKSAREAALSNNSIPEEVYDNLVKTINKHLPLLHRYIALRKKVLELDEVHIYDLYTPLVKDAGMKVTYEEAKDYMLKGLAPLGEEYASILKEGLENRWVDVYENKGKRNGAYSSGAYGTNPYILMNWHNNVNNLFTLVHEFGHSVHSYYTRKHQPYPYGNYSIFVAEVASTTNEALLGEYLLNNLEDEKQRLYILNHMLEGFRGTVFRQTMFAEFEHLIHTKAQEGEPLTPELLTNVYYDLNKKYFGDGMVIDKEIGLEWSRIPHFYYNYYVYQYATGYSAAQALSSQILKEGKPAVDRYIDFLKAGSSQYPIDVLKKAGVDMTSPEPIEAACKMFEEKLDEMEELLMKVKEGHHHHHH | soluble |
| MRLTTKGRYAVTAMLDLALHAQQGPVSLADISERQGISLSYLEQLFAKLRRGNLVTSVRGPGGGYQLSRHMSGIHVAQVIDAVNESVDATRCQGQGDCHSGDTCLTHHLWCDLSLQIHEFLSGISLADLVSRQEVQEVALRQDERRCSGKTPRLDKIEASAID | not soluble |
| MSLAASRRRNTYSQKVNMSNNVRADSLSLLLFTLRSGKLMAINLLKVSEIIPCPALTHLPESHPHVKGIATLRGSSLAVIDLSRAIGERPLADPDGGCLIVTDVSRSKQGLHVQAVSKIVHCLTTDIRPPPYGSSSKSFITGVTQVDGVLVQVLDIEKVIHGIAPAQIVVQSTELAKEDAEVLSKARILVVDDSQVALQQSIITLRNLGIECHTARSAREAIDVLLDLQGTARQINVVVSDIEMSEMDGYALTRTLRDTPDFSDLYILLHTSLDSAMNSEKSQIAGANAVLTKFSSPELTKCLIEAARTVVAQGEGHHHHHH | soluble |
| MSLIVVTGGAGFIGSHVVDKLSESNEIVVIDNLSSGNEEFVNEAARLVKADLAADDIKDYLKGAEEVWHIAANPDVRIGAENPDEIYRNNVLATYRLLEAMRKAGVSRIVFTSTSTVYGEAKVIPTPEDYPTHPISLYGASKLACEALIESYCHTFDMQAWIYRFANVIGRRSTHGVIYDFIMKLKRNPEELEILGNGEQNKSYIYISDCVDAMLFGLRGDERVNIFNIGSEDQIKVKRIAEIVCEELGLSPRFRFTGGDRGWKGDVPVMLLSIEKLKRLGWKPRYNSEEAVRMAVRDLVEDLDEEGHHHHHH | soluble |
| MARILVIEDEPLVGHMLRRFLERAGHDVVWAPNGEVGLRRLAEGFDLVVCDLIMPGIPGEEVIRRIREEAGPPVLAVSASVSRESQRRALEAGAQAFLGKPFEAQAFLRVVEGLLRGT | soluble |
| LDRAYLRVENQRYRDKLEAANRELQASLNLLQEDQNAGRQVQMNMLPVTPWSIEGLEFSHRIIPSLYLSGDFVDYFRVDERRVAFYLADVSGHGASSAFVTVLLKFMTTRLLYESRRNGTLPEFKPSEVLAHINRGLINTKLGKHVTMLGGVIDLEKNSLTYSIGGHLPLPVLFVEGQAGYLEGRGLPVGLFDDATYDDRVMELPPSFSLSLFSDGILDVLPGATLKEKEASLPEQVAAAGGTLDGLRQVFGLANLAEMPDDIALLVLSRNLA | not soluble |
| MAESRRKYYFPDVTDEQWNDWHWQVLNRIETLDQLKKYVTLTAEEEEGVKESLKVLRMAITPYYLSLIDPENPNCPIRKQAIPTHQELVRAPEDQVDPLSEDEDSPVPGLTHRYPDRVLFLITDKCSMYCRHCTRRRFAGQKDASSPSERIDRCIDYIANTPTVRDVLLSGGDALLVSDERLEYILKRLREIPHVEIVRIGSRTPVVLPQRITPQLVDMLKKYHPVWLNTHFNHPNEVTEEAVEACERMANAGIPLGNQTVLLRGINDCTHVMKRLVHLLVKMRVRPYYIYVCDLSLGIGHFRTPVSKGIEIIENLRGHTSGYAVPTFVVDAPGGGGKIPVMPNYVVSQSPRHVVLRNYEGVITTYTEPENYHEECDCEDCRAGKHKEGVAALSGGQQLAIEPSDLARKKRKFDKN | soluble |
| MSNYWLNIYKPRGISSAQLVSIVKKILGKTKIGHAGTLDVEAEGILPFAVGEATKLIHLLVDARKTYIFTVKFGMQTNSGDCAGKVIATKDCIPSQEEAYAVCSKFIGNVTQIPPAFSALKVNGVRAYKLAREGKKVELKPRNITIYDLKCLNFDEKNATATYYTECSKGTYIRTLAEDLALSLQSLGFVIELRRTQVGIFKEENAIRIKSPDEITKNALEENSIKIEAILDDILVLDATDSQAQQIKYGQKCLFNYEKDFRHLAKFAYREEFKGNTERNTTAYTLVREDASTGLTYKLPLEVEFGKMSVDLLWVRYKGTLLAIGSLNKSCFNSLRVFNLTQDFF | not soluble |
| MSSDLYANAVLYSEISQRNPELVSKMFNEATRKKLDAFLKDNEAPKLKDIVTDNVFKKRKRIASSSGNEPPVKKMAAKDSSDSDSSDDGAVKKNGVQKPVNVAAKKSATPVQKKAESSSSSDSDAPAKKLTPVKKPAQTPAQKKAASSSDSDSDDEPPKKAPAVTTKVAPKPMAKKQDTSDSDSDSEDSDDGKSKKANPVKVTPVANVLQKVVAKKAASSSSDSSDDEKKPAAKPTPAKPTPKPVVKKAESSSDSSDDEKKPVAKPAPAKATPKPAAKKADSSSDSSDDEAPAKKTPAKAAPKPVAKKAESSSDSSDDEKKPAAKPTPAKATPKPVAKKAESSSDSSDDEKKPVAKPAPAKATPKPVAKKAESSSDSSDDEKKPAAKPTPAKATPKPVAKKAESSSDSSDDEKKPVAKPTSAKATPKPAAKKADSSSDSSDDEAPAKKTPAKAAPKPASKKAESSSDSSDDEKPAAKSTPAKITPKPTAKKVASSSSDSSDDEKKPAAKPTPANATPKPVAKKAESSSDSSDDEKKPVAKPTSAKATPKPAAKKADLSSDFSDDEAPAKKTPAKAAPKPASKKAESSSDSSDDEKPAAKSTPAKTTPKPTAKKAASSSSDSSDDEKKPVAKPTSAKATPKPAAKKADSSSDSSDDEAPAKKTPVKPTPVKIVAKKVDSSSDSSDDEKKPTKATPVKVTPKSVTKKAAASSSDSSDDEKKPVVKQTPNVVPKKEKAASSSDDSSDDEKKPTAKPTPKATPKQSAKKADSSDDSSDDEAPAKKTPAKSTPAKTAVKKEASSSSDDSSDDEKTKKKSATTPAKSTPKTALKKAESSDSSDDDEDLPKPSKAVTPRPQRADSEESAETEESSSRTPALKAKPLATSTEKAVYENRKRKSSPFRRVQMTKDSVSEKFRNNQHDSHFDQWGQRANESLGKVVGKAFRHEKTKKKKGSYGGGPINQSINSIKFSDSDD | soluble |
| MKQKEYMEYRPLGEEIERIRKGKNIPLRVFDENGVSSRSYQRFVQGNSELRISDLAIIVEILSISPMEMTEKLTPMSKTVLAKEQFNQAIFSKNFQESSRIVADYRAYYEKSSFALGKQEVMYSMLALEYLFNPQTVVTKEEIIALENQILERLINADVYTIFNLKFLALQKNVGLQPFPTSLLFRVLQSVNEREIIDIRSLEIIEQVIIDFLFAAIVSQNVPHILHVLSMFKEYEVGENNWRMILWKKIAEKIEMILTNEEIFADWSIFKEQILLSITLFLPKAKQEFFAGQLEKIEDSLKEIKEN | not soluble |
| MGSSHHHHHHSSGLVPRGSHMSISRFGVNTENEDHLAKELEDLNKWGLNIFNVAGYSHNRPLTCIMYAIFQERDLLKTFRISSDTFITYMMTLEDHYHSDVAYHNSLHAADVAQSTHVLLSTPALDAVFTDLEILAAIFAAAIHDVDHPGVSNQFLINTNSELALMYNDESVLENHHLAVGFKLLQEEHCDIFMNLTKKQRQTLRKMVIDMVLATDMSKHMSLLADLKTMVETKKVTSSGVLLLDNYTDRIQVLRNMVHCADLSNPTKSLELYRQWTDRIMEEFFQQGDKERERGMEISPMCDKHTASVEKSQVGFIDYIVHPLWETWADLVQPDAQDILDTLEDNRNWYQSMIPQSPSPPLDEQNRDCQGLMEKFQFELTLDEEDSEGPEKEGEGHS | soluble |
| MNSLRPELLELTPQALTALSNAGFVKRSLKELENGNVPEISHENSALIATFSDGVRTQLANGQALKEAQCTYGASGMCRHRVMLVLSYQRLCATAQPTGKEEEWDPAIWLEELATLPDATRKRAQALVAKSITIELFCAPGEIPSARLPMSDVRFYSRSSIRFARCDCIEGTLCEHVVLAVQAFVQAKAQQAELTHLIWQMRSEHVTSSDDPFASEEGKTCRQYVQQLSQALWLSGISQPLIHYEAAFSRAQQAAERCSWRWVSESLRQLRASVDAFHARASHYHAGECLRQLAALNSRLNCAQEMARSDSVGEVPPVPWRTVVGSGIAGEAKLDHLRLVSLGMRCWQDIEHYGLRIWFTDPDTGSILHLSRSWPRSEQEDSPAATRRLFSFQAGALAGGQIVSQAAKRSADGELLLATRNRLSSVVPLSPDAWQMLSAPLRQPGIVALREYLRQRPPACIRPLNQVDNLFILPVAECISLGWDSSRQTLDAQVISGEGEDNLLTLSLPASASAPYAIERMAALLQQTDDPVCLVSGFVSFVDGQLTLEPQVMMTKTRAWALDAETAPVVVSLPSASVLPVPSTAHQLLMRCQALLIQLLHNGWRYQEQSAINQAELLANDLTAVGFYRLAHVLAQFRNTESEARVEAMNNGVLLCEQLFPMLQQQG | not soluble |
| MAEEIQMYDDAASVAFIRNFIPQELKEKMTDDDIVYIVDLIYDFYESRGFMDMAEDSEETVEVDEDELVEYVVKNAARDEVGHFSADEIRFVVQGELEYCESINLFEED | not soluble |
| MHKRFAALAAPLLYLACASAQADTMRCGSALVSVGDRAFEVQQKCGDPDHRDDVGYTLGSYDRREFKVEEWVYGPRNGVTYILTFEANKLKRIEFKR | not soluble |

From the DeepSol protein solubility set
